In data set [1] the target is T1, His-tagged HMGB1 (UniProt P09429 P09429:1-215). Briefly: SPR; superior to R8c6_1; 635 nM protein. The conditions noted are these: tags: N-terminal His-tag. The procedure: (§1) First, a sensor chip (trade name: Sensor Chip SA, manufactured by GE Heathcare) specially made for a BIACORE was set on the aforementioned BLACORE (registered trademark) X. Biotinylate deoxythymidine (5 μmol/L) was injected into the flow cell 2 of the aforementioned sensor chip using a running buffer and subjected to binding until the signal intensity (RU: resonance unit) reached about 1000 RU. For the aforementioned biotinylated deoxythymidine, 20-base-long deoxythymidine in which the 5′ end was biotinylated was used. Then, 10 μg/mL of an RNA aptamer was injected at a flow rate of 20 μL/min for 1 min into the aforementioned flow cells 1 and 2 of the aforementioned chip using a running buffer and subjected to binding until the signal intensity reached about 1000 RU. Next, 675 nmol/L of the aforementioned His-tag-added HMGB1 was injected at a flow rate of 20 μL/min for 30 sec using the aforementioned running buffer, and under the same conditions the aforementioned running buffer was allowed to flow continuously for washing. Simultaneously with the injection of the aforementioned His-tag-added HMGB1 and washing with the aforementioned running buffer, signal intensity was measured. The aforementioned running buffer was composed of 20 mmol/L of HEPES, 500 mmol/L of NaCl, 0.1 mmol/L of MgCl₂, and 0.1% Triton X-100 (registered trademark), with the pH thereof being 7.2. As a blocking agent for suppressing nonspecific binding, tRNA was used in a concentration of 1 mg/mL. In a comparative example, signal intensity was measured in the same manner except that the aforementioned comparative example RNA was used in place of the aforementioned example RNA aptamers.
T1 sequence (P09429 whole entry, one chain of several): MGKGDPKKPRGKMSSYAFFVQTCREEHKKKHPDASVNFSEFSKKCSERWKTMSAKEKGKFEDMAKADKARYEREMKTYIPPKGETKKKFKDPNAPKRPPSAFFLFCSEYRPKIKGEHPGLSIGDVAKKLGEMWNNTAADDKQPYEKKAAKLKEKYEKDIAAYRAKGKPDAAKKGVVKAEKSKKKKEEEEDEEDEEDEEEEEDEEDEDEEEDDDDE
An analysis of ability to bind to His-tag-added HMGB1 was carried out in the same manner as in (2) above of the aforementioned Example 1 except that the aforementioned RNA aptamers were used, the concentration of the aforementioned His-tag-added HMGB1 was 635 nmol/L, and the injection time of the aforementioned His-tag-added HMGB1 was 60 seconds. Also, an analysis was carried on the aforementioned 40N as a comparative example in the same manner.

Data set [2] deals with T1, His-tagged HMGB1. Briefly: SPR; 160 nM protein. The conditions noted are these: tags: N-terminal His-tag. The method, then: as §1
An analysis of ability to bind to His-tag added HMGB1 was carried out in the same manner as in (2) above of the aforementioned Example 1 except that the aforementioned RNA aptamers were used, and the concentration of the aforementioned His-tag-added HMGB1 was 160 nmol/L. Also, an analysis was carried on the aforementioned 40N as a comparative example in the same manner. FIGS. 12 and 13 show the results.

In the next data set the target is HMGB1 (no His-tag) (UniProt P09429 P09429:1-215). Briefly: SPR; 1 uM untagged HMGB1, 500 mM NaCl. The conditions noted are these: tags: none. The method, then: as §1
Sequence of HMGB1 (no His-tag) (P09429 whole entry, one chain of several): as above
The ability of each of the aforementioned RNA aptamers to bind to HMGB1 in which no His-tag was added to the N-terminus was examined. An analysis of the aforementioned binding ability was carried out in the same manner as in (2) above except that 1 μmol/L of the aforementioned HMGB1 was used in place of the aforementioned His-tag-added HGB1 and the injection time of the aforementioned HMGB1 was 60 sec.

In data set [3] the target is T1, His-tagged HMGB1. The experiment in a line: SPR; physiological 150 mM NaCl. As to conditions: tags: N-terminal His-tag. The procedure:
as §1
The ability of each of the aforementioned RNA aptamers to bind to HMGB1 under physiological conditions was examined. An analysis of binding ability was carried out in the same manner as in (2) above except that the 500 mmol/L NaCl concentration of the aforementioned running buffer was changed so as to conform to the physiology condition of a living body of 150 mmol/L, and the injection time of the aforementioned His-tag-added HMGB1 was 45 sec.
(SPR reads the build-up and loss of mass on a sensor chip optically.)

A further data set deals with His-tagged MIF (UniProt P14174 P14174:2-115). The experiment in a line: SPR; 300 nM His-MIF specificity control. The procedure:
as §1
The ability of each of the aforementioned RNA aptamers to bind to His-tag was examined. An analysis of the aforementioned binding ability was carried out in the same manner as in (2) above except that 300 nmol/L of the aforementioned His-tag-added MIF protein was used in place of the aforementioned His-tag-added HMGB1.

For data set [4], the target named is T1, His-tagged HMGB1. Briefly: SPR; 200 nM protein, 150 mM NaCl; above unmodified 40N. As to conditions: tags: N-terminal His-tag. The method, then: as §1
An analysis of ability to bind to the aforementioned His-tag-added HMGB1 (manufactured by Sigma) was carried out in the same manner as in (2) above of the aforementioned Example 1 except that the aforementioned fluorinated RNA aptamers were used, the concentration of the aforementioned His-tag-added HMGB1 was 200 nmol/L, the concentration of NaCl in the aforementioned running buffer was 150 mmol/L, and the injection time of the aforementioned His-tag-added HMGB1 was 60 seconds. Also, an analysis was carried out in the same manner on unmodified R8c6_{—}1 that was not fluorinated.

Sequence of His-tagged MIF (P14174 2-115, one chain of several): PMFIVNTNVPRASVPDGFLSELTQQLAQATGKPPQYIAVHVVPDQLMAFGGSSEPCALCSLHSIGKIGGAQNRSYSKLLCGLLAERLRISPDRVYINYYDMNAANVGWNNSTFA

B1: R8c6_1-21 (ssRNA)
RNA: GGGACAGUAAGACACGUAGCACCAGUCUGACGUUUGUCGUCAGUGCCUGGACGUGCAGU
Consider B1, for which the binding result with His-tagged HMGB1 [1] is “binds”.
As for GGGAGUACAGUAAGACACGUAGCACCAGUGUGCCUGGACGUGCAGU (ssRNA) [R8c6_1-18-S6], the binding result in the data set with His-tagged HMGB1 [2] is listed as “binds”.

B2: #36 (ssRNA)
RNA: GGGACGCUCACGUACGCUCACCUAGCACGUCCGUUUCUGGAUCUGUCAGUUAGAGGCCUAUCAGUGCCUGGACGUGCAGU
Consider B2, for which the binding result with HMGB1 (no His-tag) is “binds”; in the data set with His-tagged HMGB1 [3] it was “binds”; with His-tagged MIF, “no binding”.
For GGGUAGCACCAGUCUGACGUUUGUCGUCAGUGCCUGGACGUGCACC (ssRNA) [R8c6_1-34CC], the binding result with His-tagged HMGB1 [2] was “binds”.

B3: R8c6_1-18 (ssRNA)
RNA: GGGAGUACAGUAAGACACGUAGCACCAGUCUGACGUUUGUCGUCAGUGCCUGGACGUGCAGU
On to B3, for which the binding result with His-tagged HMGB1 [1] is on record as “binds”.

B4: #47 (ssRNA)
RNA: GGGACGCUCACGUACGCUCAAAAAACUACUGCCGAACCGUAAGACACGUAGAACCAGGCAUCAGUGCCUGGACGUGCAGU
Turning to B4, the results for the binding result in the data set with HMGB1 (no His-tag), with His-tagged HMGB1 [3] and with His-tagged MIF were “binds”, “binds” and “no binding”, respectively.

B5: R8c6_1-20 (ssRNA)
RNA: GGGUACAGUAAGACACGUAGCACCAGUCUGACGUUUGUCGUCAGUGCCUGGACGUGCAGU
Regarding B5, the binding result in the data set with His-tagged HMGB1 [1] was “binds”.
On to GGGCACGUAGCACCAGUCUGACGUUUGUCGUCAGUGCCUGGACGUGCAGU (ssRNA) [R8c6_1-30], for which, in the data set with His-tagged HMGB1 [2], the binding result was “binds”.

B6: #06 (ssRNA)
RNA: GGGACGCUCACGUACGCUCAUACACUGCACGCUCCGCUUUGAACAUCAAUGGAGGCCCUGUCAGUGCCUGGACGUGCAGU
As to B6, the binding result is reported as “binds” in the data set with HMGB1 (no His-tag), “binds” with His-tagged HMGB1 [3] and “no binding” in the data set with His-tagged MIF.

B7: 2'F-U-#06 (ssRNA)
RNA: GGGACGCUCACGUACGCUCAUACACUGCACGCUCCGCUUUGAACAUCAAUGGAGGCCCUGUCAGUGCCUGGACGUGCAGU
modifications: 2'-F on all U
With B7, in the data set with His-tagged HMGB1 [4], the binding result is listed as “binds”.

B8: 2'F-CU-#06 (ssRNA)
RNA: GGGACGCUCACGUACGCUCAUACACUGCACGCUCCGCUUUGAACAUCAAUGGAGGCCCUGUCAGUGCCUGGACGUGCAGU
modifications: 2'-F on all C and U
Take B8: the binding result with His-tagged HMGB1 [4] is listed as “binds”.

B9: 2'F-C-#06 (ssRNA)
RNA: GGGACGCUCACGUACGCUCAUACACUGCACGCUCCGCUUUGAACAUCAAUGGAGGCCCUGUCAGUGCCUGGACGUGCAGU
modifications: 2'-F on all C
Consider B9, for which the binding result with His-tagged HMGB1 [4] is reported as “binds”.

B10: R8c6_1-15 (ssRNA)
RNA: GGGCAGAGUACAGUAAGACACGUAGCACCAGUCUGACGUUUGUCGUCAGUGCCUGGACGUGCAGU
Consider B10, for which the binding result with His-tagged HMGB1 [1] is “binds”.

B11: 2'F-CU-R4_9068 (ssRNA)
RNA: GGGACGCUCACGUACGCUCAUGAUAUUUAAAUUUGGCCGCGUUUAAAACAUCCCCUACGAUCAGUGCCUGGACGUGCAGU
modifications: 2'-F on all C and U
In the case of B11, the binding result in the data set with His-tagged HMGB1 [4] is reported as “binds”.

B12: 2'F-C-R4_9068 (ssRNA)
RNA: GGGACGCUCACGUACGCUCAUGAUAUUUAAAUUUGGCCGCGUUUAAAACAUCCCCUACGAUCAGUGCCUGGACGUGCAGU
modifications: 2'-F on all C
Consider B12, for which the binding result with His-tagged HMGB1 [4] is listed as “binds”.

B13: 2'F-U-R4_9068 (ssRNA)
RNA: GGGACGCUCACGUACGCUCAUGAUAUUUAAAUUUGGCCGCGUUUAAAACAUCCCCUACGAUCAGUGCCUGGACGUGCAGU
modifications: 2'-F on all U
Turning to B13, the binding result with His-tagged HMGB1 [4] is reported as “binds”.

B14: #08 (ssRNA)
RNA: GGGACGCUCACGUACGCUCAAGUCCCUUGACACGUCCGUUUUCUAACUGGAAUAGAGGCCUCAGUGCCUGGACGUGCAGU
In the case of B14, the binding result is given as “binds” with HMGB1 (no His-tag), “binds” with His-tagged HMGB1 [3] and “no binding” with His-tagged MIF.

B15: #80 (ssRNA)
RNA: GGGACGCUCACGUACGCUCACAUCUGAAUUUAAGCCACGUAGAACCAGGCCCUCCACGCGUCAGUGCCUGGACGUGCAGU
In the case of B15, the binding result is listed as “binds” with HMGB1 (no His-tag), “binds” with His-tagged HMGB1 [3] and “no binding” with His-tagged MIF.

B16: 2'F-U-#80 (ssRNA)
RNA: GGGACGCUCACGUACGCUCACAUCUGAAUUUAAGCCACGUAGAACCAGGCCCUCCACGCGUCAGUGCCUGGACGUGCAGU
modifications: 2'-F on all U
Turning to B16, the binding result with His-tagged HMGB1 [4] was “binds”.

B17: 2'F-C-#80 (ssRNA)
RNA: GGGACGCUCACGUACGCUCACAUCUGAAUUUAAGCCACGUAGAACCAGGCCCUCCACGCGUCAGUGCCUGGACGUGCAGU
modifications: 2'-F on all C
For B17, in the data set with His-tagged HMGB1 [4], the binding result was “binds”.

B18: 2'F-CU-#80 (ssRNA)
RNA: GGGACGCUCACGUACGCUCACAUCUGAAUUUAAGCCACGUAGAACCAGGCCCUCCACGCGUCAGUGCCUGGACGUGCAGU
modifications: 2'-F on all C and U
As to B18, in the data set with His-tagged HMGB1 [4], the binding result is on record as “binds”.

B19: R8c6_1-18-S4 (ssRNA)
RNA: GGGAGUACAGUAAGACACGUAGCACCAGUCGUUUGUCGUGCCUGGACGUGCAGU
In the case of B19, in the data set with His-tagged HMGB1 [2], the binding result is listed as “binds”.

B20: #10 (ssRNA)
RNA: GGGACGCUCACGUACGCUCAUAGUCAAGGUGAAAACCCCCAUAGAGACUUCAGUGCCUGGACGUGCAGU
For the molecule B20, the results for the binding result in the data set with HMGB1 (no His-tag), with His-tagged HMGB1 [3] and with His-tagged MIF were “binds”, “binds” and “no binding”, respectively.

B21: #34 (ssRNA)
RNA: GGGACGCUCACGUACGCUCAAUUCACCUCAGCAUGUCCGCUUGUGACGAUGGAGGCACCUUCAGUGCCUGGACGUGCAGU
For B21, the results for the binding result with HMGB1 (no His-tag), with His-tagged HMGB1 [3] and in the data set with His-tagged MIF were “binds”, “binds” and “no binding”, respectively.

These data come from patent US20120208867, “HMGB1 BINDING NUCLEIC ACID MOLECULE AND APPLICATIONS THEREOF” (published 2012).
